Measurements published in patent publication US5158935A, “Human epidermal growth factor having substitution at position 11” (Chiron Corporation, priority 1989, dated 1992).

Assays:
[1] = citrate buffer, pH 3, 45° C.
Procedure: Solutions of rhEGF and rhEGF-Glu11 were prepared in citrate buffer, pH 3, and were maintained at 45° C. Aliquots were drawn on days 0, 1, 7, and 15, and were analyzed by RP-HPLC (as described in Example 2).

[2] = forms isolated from recombinant yeast culture; cited from earlier work
[3] = stored as a lyophilized powder; cited from earlier work

| Molecule | degradation products versus original protein by RP-HPLC ([1]; by day 15) | degradation seen in RP-HPLC chromatograms ([1]; days 0, 1, 7 and 15) | EGF activity [2] | stability on storage [3] |
| --- | --- | --- | --- | --- |
| CC[C@H](C)[C@@H]1NC(=O)[C@H](Cc2ccc(O)cc2)NC(=O)CNC(=O)[C@H](C(C)C)NC(=O)[C@H](C(C)C)NC(=O)[C@@H](NC(=O)[C@H](CC(N)=O)NC(=O)[C@@H]2CSSC[C@@H]3NC(=O)[C@H](Cc4ccc(O)cc4)NC(=O)CNC(=O)[C@H](CC(=O)O)NC(=O)[C@H](Cc4c[nH]cn4)NC(=O)[C@H](CO)NC(=O)[C@H](CC(C)C)NC(=O)[C@@H]4CCCN4C(=O)[C@@H](NC(=O)[C@H](CCC(=O)O)NC(=O)[C@H](CO)NC(=O)[C@H](CC(=O)O)NC(=O)[C@H](CO)NC(=O)[C@@H](N)CC(N)=O)CSSC[C@H](NC(=O)[C@H](C(C)C)NC(=O)CNC(=O)[C@H](CC(=O)O)NC(=O)[C@H](Cc4c[nH]cn4)NC(=O)[C@H](CC(C)C)NC3=O)C(=O)N[C@@H](CCSC)C(=O)N[C@@H](Cc3ccc(O)cc3)C(=O)N[C@@H]([C@@H](C)CC)C(=O)N[C@@H](CCC(=O)O)C(=O)N[C@@H](C)C(=O)N[C@@H](CC(C)C)C(=O)N[C@@H](CC(=O)O)C(=O)N[C@@H](CCCCN)C(=O)N[C@@H](Cc3ccc(O)cc3)C(=O)N[C@@H](C)C(=O)N2)CSSC[C@@H](C(=O)N[C@@H](CCC(N)=O)C(=O)N[C@@H](Cc2ccc(O)cc2)C(=O)N[C@@H](CCCNC(=N)N)C(=O)N[C@@H](CC(=O)O)C(=O)N[C@@H](CC(C)C)C(=O)N[C@@H](CCCCN)C(=O)N[C@@H](Cc2c[nH]c3ccccc23)C(=O)N[C@@H](Cc2c[nH]c3ccccc23)C(=O)N[C@@H](CCC(=O)O)C(=O)N[C@@H](CC(C)C)C(=O)N[C@@H](CCCNC(=N)N)C(=O)O)NC(=O)[C@H](CCCNC(=N)N)NC(=O)[C@H](CCC(=O)O)NC(=O)CNC1=O [EGF-Asp11] | the degradation products outweighed the original rhEGF | rapidly degraded to rhEGF-isoaspartyl11 |  |  |
| EGF-D: 52-amino acid sequence obtained by removing the C-terminal arg of EGF (NSDSECPLSHDGYCLHDGVCMYIEALDKYACNCVVGYIGERCQYRDLKWWEL; not fully specified; Epidermal growth factor; UniProt P01133 971-1022, looked up, fragment) |  |  | full EGF activity | stable |
| EGF-B: EGF-D wherein the C-terminal arg-leu has been removed (NSDSECPLSHDGYCLHDGVCMYIEALDKYACNCVVGYIGERCQYRDLKWWE; not fully specified; Epidermal growth factor; UniProt P01133 971-1021, looked up, fragment) |  |  | full EGF activity |  |
